Laboratory results as given in article PMC5534430, “Crystal structure of a Pseudomonas malonate decarboxylase holoenzyme hetero-tetramer” (Nature Communications, 2017).
Each block holds one molecule with its values, some of them ahead of it.

Legend:
[1] = target: T1, MDC hetero-tetramer (MdcA active site) (Pseudomonas aeruginosa, UniProt Q9I6T0); test: X-ray crystal structure, […] Å; assay type: binding; conditions: malonate from the crystallization solution; MdcA active site between domains AN and AC; apo MdcC
T1 construct: hybrid hetero-tetramer: full-length MdcA (1-554), MdcD, MdcE of P. aeruginosa and full-length MdcC of P. fluorescens without prosthetic group; only MdcE N-terminal His-tagged; E. coli Rosetta; 140 kD, 1:1:1:1; with Malonate decarboxylase acyl carrier protein (malonate decarboxylase subunit delta), Pseudomonas fluorescens; Malonate decarboxylase subunit beta; Malonate decarboxylase subunit gamma
T1 sequence (Q4K4F7 whole entry, one chain of several, further chain, the tested form may be a part): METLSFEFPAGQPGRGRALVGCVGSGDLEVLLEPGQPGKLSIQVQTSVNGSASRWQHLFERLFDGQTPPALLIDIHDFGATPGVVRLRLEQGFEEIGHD
T1 sequence (Q9I6T0 entry or part of it, one chain of several): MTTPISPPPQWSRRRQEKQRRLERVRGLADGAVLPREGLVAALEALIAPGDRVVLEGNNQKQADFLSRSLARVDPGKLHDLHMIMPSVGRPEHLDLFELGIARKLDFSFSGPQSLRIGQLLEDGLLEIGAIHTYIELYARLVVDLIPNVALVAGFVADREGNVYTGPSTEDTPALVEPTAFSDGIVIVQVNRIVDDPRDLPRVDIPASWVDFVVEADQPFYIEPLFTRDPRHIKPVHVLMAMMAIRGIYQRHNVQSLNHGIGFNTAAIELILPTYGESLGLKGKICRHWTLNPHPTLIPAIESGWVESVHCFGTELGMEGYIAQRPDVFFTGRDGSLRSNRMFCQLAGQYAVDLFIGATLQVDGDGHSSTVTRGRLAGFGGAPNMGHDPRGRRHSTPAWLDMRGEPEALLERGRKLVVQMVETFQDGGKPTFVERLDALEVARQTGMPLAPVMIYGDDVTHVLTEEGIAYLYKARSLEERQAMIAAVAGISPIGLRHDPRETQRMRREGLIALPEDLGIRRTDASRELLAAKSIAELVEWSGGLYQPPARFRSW

[2] = target: MdcE subunit of malonate decarboxylase (P. aeruginosa), N-terminal His tag (P. aeruginosa); test: SEC; gel filtration of the co-expressed, purified MdcD–MdcE complex
purified protein = substrate: CC(C)(COP(=O)(O)OP(=O)(O)OC[C@H]1O[C@@H](n2cnc3c(N)ncnc32)[C@H](O)[C@@H]1OP(=O)(O)O)[C@@H](O)C(=O)NCCC(=O)NCCSC(=O)CC(=O)O; test: purified protein; assay type: biochemical, Pseudomonas aeruginosa; conditions: decarboxylation, 2.5 μM enzyme, 20 mM Tris pH 8.0, Hill equation fit, Hill coefficient 1.68 ± 0.13

Molecule: O=C(O)CC(=O)O [malonate]
X-ray crystal structure, 2.2 Å [1]: A malonate molecule from the crystallization solution is bound in the active site

stoichiometry N [2]: 1
B1: MdcD subunit of malonate decarboxylase (P. aeruginosa) (natural protein)
chain: MTDVARLLALRSFTELGARQRARALLDAGSFRELLDPFAGVQSPWLERQGIVPQADDGVVVARGLLDGQPAVLAAIEGAFQGGSLGEVSGAKIAGALELAAEDNRNGVPTRALLLLETGGVRLQEANLGLAAIAEIQAAIVDLQRYQPVVAVIAGPVGCFGGMSIAAGLCSYVLVTREARLGLNGPQVIEQEAGIAEYDSRDRPFIWSLTGGEQRFASGLADAYLADDLDEVRTSVLAYFAKGLPARPRCRRAEDYLRRLGDLDTAEQPDAAGVRRLYQGLGQGDAT

B2: MdcD–MdcE complex (Pseudomonas aeruginosa PAO1) (protein)
chain 1: MTDVARLLALRSFTELGARQRARALLDAGSFRELLDPFAGVQSPWLERQGIVPQADDGVVVARGLLDGQPAVLAAIEGAFQGGSLGEVSGAKIAGALELAAEDNRNGVPTRALLLLETGGVRLQEANLGLAAIAEIQAAIVDLQRYQPVVAVIAGPVGCFGGMSIAAGLCSYVLVTREARLGLNGPQVIEQEAGIAEYDSRDRPFIWSLTGGEQRFASGLADAYLADDLDEVRTSVLAYFAKGLPARPRCRRAEDYLRRLGDLDTAEQPDAAGVRRLYQGLGQGDAT
chain 2: MSQPFASRGLAWFQALAGSLAPRPGDPASLRVADAELDGYPVRFLAVVPDPDNPFPRARQGEVGLLEGWGLAAAVDEALEADREAPRKRALLAIVDVPSQAYGRREEALGIHQALAGAVDAYARARLAGHPLIGLLVGKAMSGAFLAHGYQANRLIALHDPGVMVHAMGKAAAARITLRSVEELEALAAKVPPMAYDIDSYASLGLLWRTLPVETVEVPSTADLVRVRTCLGEALADILGGPRDLGGRLGAANREASARVRRLLREQW
notes: full-length; N-terminal His-tagged MdcE (28 kD), untagged MdcD (30 kD); co-expressed in E. coli BL21Star (DE3) from pCDFDuet; 1:1 hetero-dimer in solution
K0.5 (purified protein): 100 ± 5 µM | kcat (purified protein): 2.3 ± 0.1 s⁻¹
